Measured values as given in the DeepSol protein solubility set.

Assay: soluble on expression in E. coli; label from the status in PepcDB or PDB records

Sequence | soluble on expression in E. coli
HPISLMRAPVNEIMVGLGYYEVMPFTLTSEKVNFENMCREKTDDVTYVLHPISEDQTMLRTTVLPNLLEILALNQHRELPQKIFEFGEVVSNETTGQHVAAVSIHPQANFTEVYEVVDAFMREMMLSYEVKESKDPAFLEGRRADVYVNGKKLGVFGELQPEVISKFSLGYAVVGFELDLNDLIGKN | not soluble
MGSDKIHHHHHHMPAIAFIDISGSPFQAGQALGRFGASAVRDHLLHTDAWRSVMRWRGTEQAALMAAQVQARFPRIWDELKGLADGLGLPLEDTFLWNCRGDVWAMSPDGCTTVQVPGAHRRRISHNEDGDPGFSGHCAIAQCHIAGSPGFASFVYPGSLPGHTFAATELGLAMTVNNLRYRNTTAGVPRMVLTRAVLDAPDLDKALAVLRDNPHAGGFHLTLGHCRSTALLSVEFSAYGCSVLDITQTSMHANHAIHPQMRDHPQIVTGSSGHRQMRGDTVIADAARDGREIDPLELLADTAHPSFPIYRDDPHDSDGENTQATADMRVGPTCIEWEVYEQPGTAPRYRMINGHTREEDATDAGARPDVQSRH | not soluble
MGSDKIHHHHHHMSRTLVLFDIDGTLLKVESMNRRVLADALIEVYGTEGSTGSHDFSGKMDGAIIYEVLSNVGLERAEIADKFDKAKETYIALFRERARREDITLLEGVRELLDALSSRSDVLLGLLTGNFEASGRHKLKLPGIDHYFPFGAFADDALDRNELPHIALERARRMTGANYSPSQIVIIGDTEHDIRCARELDARSIAVATGNFTMEELARHKPGTLFKNFAETDEVLASILTPKHS | not soluble
MAYSKIRQPKLSDVIEQQLEFLILEGTLRPGEKLPPERELAKQFDVSRPSLREAIQRLEAKGLLLRRQGGGTFVQSSLWQSFSDPLVELLSDHPESQYDLLETRHALEGIAAYYAALRSTDEDKERIRELHHAIELAQQSGDLDAESNAVLQYQIAVTEAAHNVVLLHLLRCMEPMLAQNVRQNFELLYSRREMLPLVSSHRTRIFEAIMAGKPEEAREASHRHLAFIEEILLDRSREESRRERSLRRLEQRKN | soluble
MDVSMLQSPQKRIKTIQKLAVSKKDVHDFKDIFEMLEEQKEKRNINIIQYDSLDDLSGDWSEYTFFCGNFDSDLFRTLTKHQETQALFIIGASVLKNKLLKNEDLMTLRAARPLYCELMKDVTMKLAAEVPNKRELVDLVHYMGGSVRKDTVSRTNVFIAAKVEAKVQSISLVGVPTMRADWVTECWKHRDDSYFDVMEPCFVDKHRLGVFEGLSLFFHGFKQTEIDDMLRSLENTGGKLAPSPTLATHVVYNPDNDEVETLAVSSNQVHVTKEWFWVSLHRGCCAIEDNFALPTGKLHRKPLESSSVSSPIGKSLRSQNSRSLSSMRDCSVEGPTSLNMTPDYIYSNDDVENSCKSPRQPSKRLRVCMEMVETEKNYLSLLKLVVKFKEALECEISHNEFMSRSDVAMMFGKLDPILELHERIFARLTVMSNEANTLLTVVNGKKNDDKNLDFAQVWIDAKEEMKKAYPQYINSYDTIKRLFDKQDRENSKFHTFCKAKESNPEFHRLKLTDLMVKPVQRLPSVILLLKEMAKKSDSKLKNNAEEAAKAIDEVLKTANKTREKNDNFISHLSKFTDIENVPPILVAANRMFIRELVVSPIASTSPGLQQFAKMKLFLFHDVLIITKIRSEKNTMQRLARHASFASLHSRQRRPYRYIDQIQLNTMRSAFRIRAPDEIAKCLELQQQNGSTKPNVFVWCLIHRDEQGGDIDTVFESNDDEEVRDFLDDIHVKILSDCGRFFYSSDPSDMNEINDAMVSDMTTRYFRNLCGAKPQYGHGSQMNITEWSHNESFMPPPQSQSRMRRAFSNAQLTLATTLGFGRNQSRNNLGQINENTTFLQSPRVSCDPAALANMTSVGGLPGCQSESESTPKRGIRSRLTSTTFLGGRHNILGRNTSMRRQATGFAHSEKELPRSKTSSYRVTDI | not soluble
MIKKVLIANRGEIAVRIIRACKEMDIETVAIYSEADKESLHVQIADEAYCVGPTISKESYLNLTNIISVAKLTGCDAIHPGYGFLAENADFAELCRECNLIFIGPSPEAISKMGTKDVARDTMKEAGVPIVPGSQGIIKNTEEAIELANQIGYPVIIKATAGGGGKGIRVARHEEELVKGIQITQQEASTAFGNPGVYLEKYVEDFRHVEIQIMADTHGNAIHLGERDCTIQRRLQKLLEESPSPALDENVRKQMGEAAVKAAVAVDYTGAGTVEFIYEYKTKSFYFMEMNTRIQVEHPVTEMVTGVDLIKEQILVASGEKLSLQQEEVQFNGWAIECRINAENPAKKFMPSPGKVEMYLPPGGFGIRVDSAVYPGYSIPPFYDSMVAKLIVHGKTREEAIAKMKRALSEFVVEGVHTTIPFHLQLLDHPDFVKGEFNTKFLEEHELVTQ | not soluble
